Experiment: soluble on expression in E. coli; label from the status in PepcDB or PDB records

Soluble on expression in E. coli, not soluble:
MGSDKIHHHHHHLSGQQDDVEDGMDQDTLTRIAEALERMAPVPQSTPDFSAASGFVWHVEPDRLEPVPEINRVELDLLVGIDRSRDTLLENTRRFAAGHAANNALLWGARGMGKSSLVKAIHGALVTDHPELKLVELQREDLPSVARLLNHLRGAPCRFILFCDDLSFSHDDQHYKSLKAVLDGGIEGRPENVVFYATSNRRHLMPRDMIENERSSAINPSEAVEEKVSLSDRFGLWLGFHPCNQDAYLAMIEGYCAAYGVTVDPERLRAEAIEWQATRGARSGRVAWQFFTDLAGREGVALR
MGSDKIHHHHHHLTDLKDALRTEALDAGFAKMGVCSPNAVPETAARLKAFVDAGFHGQMGWMAERMHWRGDASALWPEAKSVVMLAEPYTPDSDPLDALARKDRATISVYAQGRDYHDLVKKRLKRVGRWLLAQCPGEQIKVFVDTAPVMEKPLAQAAGLGWQGKHTNLLARDLGNWVFLGAIFTTVELPIDEPEAEHCGSCTACLDICPTNAFPAPFQLDARKCISYLTIEHKGPVDLALRAKLGNRIYGCDDCLAVCPWNKFAQTARDIRYAPRDDLRSPLLADLAALDDAGFRARFSGSPIKRIGRDRFVRNILYAIGNSGQAKLVDAARPLTDDPDVAVADAARWAMERLL
MGSDKIHHHHHHMAAKLFGIMMINVQSIELSIVNLRTLRQVERVRSDVSLGEDIYDQHTIDYDSVEQAAQALSGFVQIMNDYGVKDYHLWGSWSLSSANNADYIQDQLLVRTGLKIDWLSSSQETYLRSVAVAVHFPRFKQMITKPTYLLGINSGSVGISHYDQSNFVFSRSLRLGPVRIAEVLEDLQSSVPNYVEVLDDYISSQIVDFGRFLPGRRDQPSNVVMLGVAPFATLFRQQQSKAGVEELSKADFQALYEDVLNASDQYLMDKYEVDEEDVRLIVPELLLINELLQLTNAEKIWLGNVTVLDGLIIQEAIKLGYKKYNFNDQIVTAAKNIADRYNVEPKHRDLVTKFSLHLFDQLKPLHHLGKRERLLLQVAAIVHDVGSYIDPHQHYLHSDYILQATELMGLTDTEKRMVALISRYHSAQTPSKDIRHFGHLQVEQRLLVSKLSAILRIADALDDGRKQKIDKISVSIRNPRVIITCFAHDDLFLENWVFAQKAEFFKEVFGLTPVIKLRGVR
MGSDKIHHHHHHMAATNYSQTIKNDTKDFITTAILQLLGIQKTFEKPKNLAQLTVSNVCKRAGVSRMAFYRNFESIDQVIYQYYQPQISQSFEIIRQNVSASSKIENQLKFFEEFKDDLFLSESQGYEPIIRQIYIEEIEKFYEKTNDEYFITFVANGVYALWRKWLMNGQDKSIEEIHELIRKIVTI
MGSDKIHHHHHHMADIALFQDDAFSLSSLTAAINEQPHVPGRVGALGLFEEDGITTTTIQIERDGDTLSLVSAGERGSPSAIVVGSKRTMIPFNTVHLPQRAFVKADEIQNLRAFGSETELEALQTVVNRRLAKLRRQLDATHEFHRIGAIKGAVLDADGKTVLIDLLQYFGIEQTVIPFELGKADTEIRVKCLEVQDAIEDALGATTYTGVRVLCGRAFWNKLIVAKTVKETYLATAMAASLRGDAREALDFGGCTFERYRGRVGDIGYVADDEAYAVPEGVPELFVTRFAPADYVEAVNTTGLPYYAKQELAQFGKGVDIEAQSNPVHLCTRPKAIVKLKA
MGSDKIHHHHHHMADKPFRLVTRSDFDGLVCATLLKELALIDEITFVHPKDMQDGQIPVTERDITTNLPYVEGVHLCFDHHLSETIRVGKKANHIIDPLAPSAARVVYNYFGGKARFPRIPDDMMDAVDKGDSAQYNMEEVLHPGGWELLNFLMDARTGLGRFREFRIPNYQLMMELIDYCRDHAIEDILDLPDVSERVDLYREHEPRFKEQLKRCSTVHGNLVVLDLRDEDPIWAGNRFMIYALYPETNISIHVLWGRERRNTVFAVGKSIFNRSSNTNIGELMLGYGGGGHHAAGTCQVDNAQAADVLARLIARITEDG
MGSDKIHHHHHHMADTTPDVETDKCDDLLESLRRGRPAAGQDPVKRSQIIDGARRVFIEKGFEAASMNDITREAGVSKGTIYVYFANKEELFEALIEEERGTIFKNMYDMLDRADDLRQTLVKFGKVLSMKITSARVIQAQRTVIGASDRIPDMGARFYERGPKRGHDKVVKFLNAAIERGLLKIDDVDLAAYQFTELCLAGLFRQCIFAYRTKAPSQEEIDHIVRSGVDMFLKNYGTEQLAEEESHQMIALEAKA
MGSDKIHHHHHHMAEERVEPKPIDLGEYKFGFHDDVEPVLSTGKGLNEGVIRELSAAKGEPEWMLEFRLKSYETFKKMPMQTWGADLSEIDFDDLIYYQKPSDKPARSWDDVPEKIKETFERIGIPEAERAYLAGASAQYESEVVYHNMKEEFQKLGIIFTDTDSALKEYPDLFKQYFAKLVPPTDNKLAALNSAVWSGGTFIYVPKGVKVDIPLQTYFRINNENIGQFERTLIIVDEGASVYYVEGCTAPTYSSNSLHAAIVEIFALDGAYMRYTTIQNWSDNVYNLVTKRAKAQKDATVEWIDGNLGAKTTMKYPSVYLDGEGARGTMLSIAFANAGQHQDTGAKMIHNAPHTSSSIVSKSIAKGGGKVDYRGQVTFNKNSKKSVSHIECDTIIMDDLSASDTIPFNEIHNSQVALEHEAKVSKISEEQLYYLMSRGLSESEATEMIVMGFVEPFTKELPMEYAVELNRLISYEMEGSVG
MGSDKIHHHHHHMAEKFDAIVVGAGPAGNAAAYTMAKAGLSVLQLERGETPGTKNVQGAILYADALERIIPDFRDDAPLERHIIEQRMWVLDEKSFIGTNYRSDAFNSDQPNRYTILRAPFDKWFSGKVKEAGALVICETTVTELIQEGKKVIGVRTDREGGDIYADVVILADGVNSLLAKKAGFHGELEAKNVALAVKEIHFLPEEIVQSRFNIKGNEGVVIEIAGAVTHGMVGTAFLYTNKESITLGIGCLLSDFKNAGIAPYTLLEKLKAHPAIAPLIEGGEMKEYAAHLIPEGGYKAVPTLYGEGWMIAGDSAGLVNAVHREGSNLAMTSGRLAAETVIALKEMKLPCTAPHLARYKTALDDSFVMKDLRKYKELPDILHGNPHFFSVYPQLLNRAAHTMLMVDGQDKHSKEKTIRGSFVQQRSLWGLVGDAYRMWRATR
MGSDKIHHHHHHMAEQQKTAAATAEAEAIDLGEFSGLLEKDFKVKKDDSEKLQQLVRNLALAAQSRSETTTISSNAIKSIKSLIAGIDKMLTTQVNEILHAPEVREMEGTWRGLWYLINNTETDTKLKIRVMNISKEQLADTLEDYEGQMWDQSPIFKKVYTDEYSMLGGEPIGCIIGAYEFSNHPRDVGLLRNISGVCASAHTPFIAAASPRLFRMDSWQELPNPQDLQMIVNNPAYASWQSLRESEDARYIGLTMPRVLARLPYGSETVPVKGFTFEEEVGGDHNKYVWMNAAFPMGVNINRSHKLYGWGTQIRGVENGGTVLNLPVHAFPTDDGSIAMKCPTEVAIDDRREAELAKLGLMPILHRKNTDLAAFIGAHSLQDDETRAGRLVDPDAQSNERLSANLPYLFPVSRFAHYLKAIARDKIGSFKERTDMEIWLTEWINRYVLANPAFADDKARAKRPLAAAEVQVDSVEGRPGYYNARFYLRPHYQLEGINASLRLVSELPSVKG
MGSDKIHHHHHHMAGCDDSFDIIVVGAGPVGLSFAASLAYSQLKLAVVEGQALERLASPAFDGREIALTHASIGILRELGAWDVISASDKSPLQGARVLNGSSPFALCFDSPGGSAEPLGVLVPNCQIRDALFKIIRLRGHARLLCGHSVVRATNSRQGAVITLSNGRQLSARLLVAADSRFSATRNLLGIGADINRLGNSMLICRVRHERPHHQIAIEWFDHHQTVAMLPLAPGVSSLLLTLPSNEADGLLALDDELFLRELTKRCRGRLGTMSLASQRYIYPLATTWAHRFRAPSFALIGDAAIGMHPVTAHGFNIGLGGQKQLARGIETAWRDRRDIADPDMLHRYESRLRLSAAPLYHATNILVGLYSSEHPAARLARHVGLRLGQHLPFVRHGIAAMLRR
MGSDKIHHHHHHMAHENVIEMRDITKVFGGFVANDKINLHLRKGEIHALLGENGAGKSTLMNMLAGLLEPTSGEIAVNGQVVNLDSPSKAASLGIGMVHQHFMLVEAFTVAENIILGSELTKNGVLDIAGASKEIKALSERYGLAVDPSAKVADISVGAQQRVEILKTLYRGADILIFDEPTAVLTPSEIDELMAIMKNLVKEGKSIILITHKLDEIRAVSDRVTVIRRGKSIETVEIAGATNADLAEMMVGRSVSFKTEKQASKPKEVVLSIKDLVVNENRGVPAVKNLSLDVRAGEIVGIAGIDGNGQSELIQAITGLRKVESGSIELKGDSIVGLHPRQITELSVGHVPEDRHRDGLILEMMISENIALQTYYKEPHSKNGILNYSNITSYAKKLMEEFDVRAASELVPAAALSGGNQQKAIIAREIDRDPDLLIVSQPTRGLDVGAIEYIHKRLIEERDNGKAVLVVSFELDEILNVSDRIAVIHDGKIQGIVSPETTNKQELGVLMAGGNLGKEKSDV
MGSDKIHHHHHHMAITIQFSNYALKTDETLIQRIQFVYSPLNELFRSLHVLLNPRHHGTNIDWVIRIQNKLTKEFYENLHYFRLFYELGVSPILLCNFRYHATTIEEEIQNLKKFLDELSTAQLIEHLEKVTSDRENSFIPTLARGLEWKDFSLNKDNQLLSDLRKDASSVYQHLFSFVDWYRQEIFDETWESKDIQRKLLTEIQHQASFLKESGFKAMFNHLQIDRIHWRKDRLVIIKPFDKDIQLKDSDSIMLLPSYFIWPHLFVESFNQGIAVTYDITEQPSYYNATPENLITIFKALSDPVRLQIMNYVIDKPSTTQSLAQILVMSNSSVSRHLQILKEANLLTTTKAKKFVLYEPTQLITQLMPNFYHFFKN
MGSDKIHHHHHHMAKFDNHPTVRWWREQSTNNPKTSTVALNSDSLRTLCLDAGADDVGFVEIYRPAIADQHAEILAVFPPTKTLISFVCCMNRESVRTPARSIANLEFHANYDHADEVARNLVKAFAQIGVRALNPSVAFPMEMDRYPDKKAWIISHKPVAVEAGLGHIGIHRNVIHPKFGNFIALGTVLIDTEVTEYAHPINYNPCIECKLCVAACPVGAIGADGSFSFSACYTHNYREFMGGFTDWTETIADSKSASDYRKKVSASESASMWQSLSFKPNYKAAYCIAACPAGEDVIAPFLSDRKAFIKDVVKPLQDKTETIYVVPGSDAENYVVKHFPNKTVKLVSSGIRPQSIQGFLFGLPLLFQRNQSEGLSAIYHFTFTGSESRRATVTIQNKMVRVQEGHLGKANISVTADSKTWLGFLGKEQNLIWALLRCKIRVSGSLKLLQAFGKCFPTCNIH
MGSDKIHHHHHHMAKQKDGFLGEQALVLPPAIVQRMKTDPATSILYITDIGYYPKAYNHFRERETPIDQYVFIYCTEGRGWFSLDGQKHPVVPNQYFILPAGLPHAYGADEKEPWTIYWIHFGGTLAPLYCTHRTCRLTDIKPGMHSRISYRTELFEEIFRVLKMGYSLENLSYASSVFHHYLGSLRYLREYREAFSEHRPAGEEDPVNAAIHYMKENLGKKLTLAELADYTGYSSSYFSNLFLKRTGYAPLSYFNQIKIQKACQFLDFTDMKVNQVCYRVGIEDAYYFSRLFSQIMGMSPREYKKVKKG
MGSDKIHHHHHHMALAKLPQLESVFLTDAGLETDFIFNRGIDLPYFASITLLQSSDGKIALEEYFRGFLELARRMRCGLILESATWRASPDWAEPLGLSQQELDTLNTSAIAILRDLRDEFGSTMPAVVISGCLGPRGDGYDPGKIMSEEGAEAYHRHQAEVLASAGVDQLTAITMTNVPEAIGIAKAAKSLAVPVAISFTVETDGRLPTGDRLSDALRAVDQATASTPAYYMINCAHPSHFAAVLEDGADWVNRIGGLRANASRCSHAEVDAMSELDRGNPEELAALHSELRLRFPHINVLGGCCGTDLDHITAIAEACL
